Columns and labels:
[1] = target: T1, recombinant human CD47-Fc protein (ACROBiosystems, catalog number CD7-H52A5) (human, UniProt Q08722 19-139); test: blocking ELISA: plate coated with human CD47-Fc, 2 nM biotin-labelled SIRPα as the blocked ligand, falling OD450 curve; the sheet labels the half-maximal value EC50
T1 construct: bought; not shown: Fc part of a bought fusion protein, not described
Protocol: A 96-well high-adsorption ELISA plate was coated with 1 μg/mL of the recombinant human CD47-Fc (ACROBiosystems) at 100 μL per well using carbonate buffer solution, pH=9.6 at 4° C. overnight. The plate was washed 5 times with PBST, and then blocked using PBST with 1% BSA, 300 μL/well, and incubated at 25° C. for 1 hour, and then washed 5 times with PBST. The anti-human CD47 antibody samples were added, 50 μL/well, the biotin-labelled SIRPα (ACROBiosystems) was added at a concentration of 4 nM (a final concentration of 2 nM), 50 μL/well, incubated at 25° C. for 90 minutes, and then washed 5 times with PBST. The Streptavidin-HRP (BD Pharmingen, catalog number 554066) diluted 1:1000 in PBST with 1% BSA was then added, 100 μL per well, and incubated at 25° C. for 1 hour. The plate was washed 5 times with PBST. The colorimetric substrate TMB was added, 100 μL/well, and developed at room temperature for 10 minutes. 1M H₂SO₄ was added, 100 μL/well, to stop the development. The absorbance at 450 nm was read on a microplate reader.

recombinant mouse CD47 = target: T2, recombinant mouse CD47 (mouse, UniProt Q61735 19-140, limits assumed); test: ELISA, plate coated with 1 µg/mL recombinant mouse CD47, anti-human IgG-HRP, OD450
T2 sequence (looked up): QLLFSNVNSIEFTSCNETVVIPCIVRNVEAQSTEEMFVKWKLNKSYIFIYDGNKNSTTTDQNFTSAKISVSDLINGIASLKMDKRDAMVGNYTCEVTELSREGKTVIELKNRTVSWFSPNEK
Protocol: (§1) Species specificity of the chimeric anti-human CD47 mAbs was determined by ELISA. A 96-well high-adsorption ELISA plate was coated with 1 μg/mL of the recombinant human CD47, cynomolgus CD47, rat CD47 and mouse CD47, at 100 μL per well using carbonate buffer solution, pH=9.6 at 4° C. overnight. The plate was washed 5 times with PBST, and then blocked using PBST with 1% BSA, 300 μL/well, and incubated at 25° C. for 1 hour, and then washed 5 times with PBST. The chimeric anti-human CD47 antibody samples serially diluted in PBST with 1% BSA were added, 100 μL/well, incubated at 25° C. for 1 hour, and then washed 5 times with PBST. The horseradish peroxidase-labeled anti-human IgG antibody (Chemicon, catalog number AP309P) diluted 1:10000 in PBST with 1% BSA was then added, 100 μL per well, and incubated at 25° C. for 1 hour. The plate was washed 5 times with PBST. The colorimetric substrate TMB was added, 100 μL/well, and developed at room temperature for 10 minutes. 1M H₂SO₄ was added, 100 μL/well, to stop the development. The absorbance at 450 nm was read on a microplate reader.

recombinant human CD47 = target: T3, recombinant human CD47 (human, UniProt Q08722 19-139); test: ELISA, plate coated with 1 µg/mL recombinant human CD47, OD450
T3 construct: also called antigen CD47
T3 sequence (Q08722 19-139 limits assumed): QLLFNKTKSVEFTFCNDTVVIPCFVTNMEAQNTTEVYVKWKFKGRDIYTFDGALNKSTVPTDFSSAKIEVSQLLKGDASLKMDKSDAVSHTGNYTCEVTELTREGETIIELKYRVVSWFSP
Protocol: A 96-well high-adsorption ELISA plate was coated with 1 μg/mL of the recombinant human CD47 (Sino Biological Inc.) at 100 μL per well using carbonate buffer solution, pH=9.6 at 4° C. overnight. The plate was washed 5 times with PBST, and then blocked using PBST with 1% BSA, 300 μL/well, and incubated at 25° C. for 1 hour, and then washed 5 times with PBST. The anti-human CD47 antibody samples and the control CC-90002 (a patent sequence from WO2016109415) were added, 100 μL/well, incubated at 25° C. for 1 hour, and then washed 5 times with PBST. The horseradish peroxidase-labeled anti-mouse IgG antibody (Abcam, catalog number Ab7068) diluted 1:10000 in PBST with 1% BSA was then added, 100 μL per well, and incubated at 25° C. for 1 hour. The plate was washed 5 times with PBST. The colorimetric substrate TMB was added, 100 μL/well, and developed at room temperature for 10 minutes. 1M H₂SO₄ was added, 100 μL/well, to stop the development. The absorbance at 450 nm was read on a microplate reader.

[2] = target: recombinant cynomolgus CD47 (cynomolgus, UniProt A0A2K5X523 19-139); test: ELISA, plate coated with 1 µg/mL recombinant cynomolgus CD47, anti-human IgG-HRP, OD450
Protocol: as §1

B7-H1 = target: T4, B7-H1 (human, UniProt Q9NZQ7); test: ELISA, plate coated with 1 µg/mL recombinant human protein, anti-human IgG-HRP, OD450; antibody concentration not given
T4 construct: recombinant protein; also called PD-L1
T4 sequence (Q9NZQ7 19-238 limits assumed): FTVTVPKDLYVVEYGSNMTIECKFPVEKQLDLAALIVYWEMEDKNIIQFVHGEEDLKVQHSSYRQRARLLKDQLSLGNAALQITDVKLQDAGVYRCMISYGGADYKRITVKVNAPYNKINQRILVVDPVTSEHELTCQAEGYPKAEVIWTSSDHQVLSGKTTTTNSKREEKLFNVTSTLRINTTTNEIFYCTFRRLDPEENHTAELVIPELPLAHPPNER

T1 sequence (Q08722 19-139 limits assumed): as the sequence (Q08722 19-139 limits assumed) above

B1: chimeric anti-human CD47 monoclonal antibody mAb-18-5 (antibody, human IgG1, kappa)
heavy: not shown
light: DIVMTQSQKFMSTSVGDRVSITCKASQNVRTSIAWYQQKSGQSPKTLIYLASNRHTGVPDRFTGSGSGTDFTLTISNVQSEDLADYFCLQHWNYPFTFGSGTKLEIKRTVAAPSVFIFPPSDEQLKSGTASVVCLLNNFYPREAKVQWKVDNALQSGNSQESVTEQDSKDSTYSLSSTLTLSKADYEKHKVYACEVTHQGLSSPVTKSFNRGEC
[1]
  IC50: 1.86 nM
Recombinant mouse CD47
  binding result: no binding (tested: about 20 nM)
Recombinant human CD47
  EC50: 0.026 nM
[2]
  EC50: 0.089 nM
B7-H1
  binding result: no binding
